The MegaScale stability set (Tsuboyama et al. 2023)

B1: EEHEE_rd4_0363 (parent)
chain: VTVDIKGMEYHFDNPEEAKKFAERMAKELGGELKVENGTLKVE

Variants of: B1
Test: folding stability dG (cDNA display proteolysis); higher = more stable
Conditions: PBS, room temperature

| Variant | folding stability dG |
| --- | --- |
| VTVDIKGMEYHFDNPEEAKKFAERMAKELGGELMVENGTLKVE [K34M] | 1.66 kcal/mol |
| VTVDIKGMEYHFDNPEEAKKFAERMAKELGGELQVENGTLKVE [K34Q] | 1.42 kcal/mol |
| VTVDIKGMEYHFDNPEEAKKFAERMAKELGGELGVENGTLKVE [K34G] | 1.03 kcal/mol |
| VTVDIKGMEYHFDNPEEAKKFAERMAKELGGELSVENGTLKVE [K34S] | 1.68 kcal/mol |
| VTVDIKGMEYHFDNPEEAKKYAERMAKELGGELKVENGTLKVE [F21Y] | 1.06 kcal/mol |
| VTVDIKGMEYHFDNPEEAKKAAERMAKELGGELKVENGTLKVE [F21A] | -0.089 kcal/mol |
| VTVDIKGMEYHFDNPEWAKKFAERMAKELGGELKVENGTLKVE [E17W] | 0.794 kcal/mol |
| VTVDIKGMEYHFDNPEVAKKFAERMAKELGGELKVENGTLKVE [E17V] | 1.17 kcal/mol |
| VTVDIKGMEYHFDNPEKAKKFAERMAKELGGELKVENGTLKVE [E17K] | 1.16 kcal/mol |
| VTVDIKGMEYHFDNPEEAKKFAERMAKFLGGELKVENGTLKVE [E28F] | 1.95 kcal/mol |
| VTVDIKGMEYHFDNPEEAKKFAERMAKWLGGELKVENGTLKVE [E28W] | 2.26 kcal/mol |
| VTVDIKGMEYHFDNPEEAKKFAERMAKELGGELKVENGVLKVE [T39V] | 2.77 kcal/mol |
| DTVDIKGMEYHFDNPEEAKKFAERMAKELGGELKVENGTLKVE [V1D] | 0.479 kcal/mol |
| RTVDIKGMEYHFDNPEEAKKFAERMAKELGGELKVENGTLKVE [V1R] | 1.29 kcal/mol |
| WTVDIKGMEYHFDNPEEAKKFAERMAKELGGELKVENGTLKVE [V1W] | 2.81 kcal/mol |
| VTVDIKGMEYHFDNPEEAKKFAERMAKELGGELKVENGTLKCE [V42C] | 1.4 kcal/mol |
| VTVDIKGMEYHFDNPEEAKKFAERMAKELGGELKVENGTLKPE [V42P] | 0.879 kcal/mol |
| VTVDIKGMEYHFDNPEEAKKFAERMAKELGGELKVENGTLKTE [V42T] | 0.943 kcal/mol |
| VTVDIKGMEYHFDNPEEAKKFAERMAKELCGELKVENGTLKVE [G30C] | 2.23 kcal/mol |
| VTVDIKGMEYHFDNPEEAKKFAERMAKELGGELKVDNGTLKVE [E36D] | 1.77 kcal/mol |

| Variant | folding stability dG |
| --- | --- |
| VTVDIKGMEYHFDNPEEAKKFAERMAKELGGELKVHNGTLKVE [E36H] | 1.83 kcal/mol |
| VTVDIKGMEYHFDNPEEAKKFAERMAKELGGELKVPNGTLKVE [E36P] | 0.792 kcal/mol |
| VTVDIKGMEYHFDNPEEAKKFAEREAKELGGELKVENGTLKVE [M25E] | 0.574 kcal/mol |
| VTVDIKGMEYHFDNPEETKKFAERMAKELGGELKVENGTLKVE [A18T] | -0.52 kcal/mol |
| VTVDIKGMEYHFDNPEEEKKFAERMAKELGGELKVENGTLKVE [A18E] | -0.431 kcal/mol |
| VTVDIKGMEYHFDNPEESKKFAERMAKELGGELKVENGTLKVE [A18S] | -0.064 kcal/mol |
| VTVDIKGMEYHFDNPEEAKKFAMRMAKELGGELKVENGTLKVE [E23M] | 1.9 kcal/mol |
| VTVDIKGMEYHFDNPEEAKKFATRMAKELGGELKVENGTLKVE [E23T] | 1.31 kcal/mol |
| VTVDIKGMEYHFDNPEEAKKFAPRMAKELGGELKVENGTLKVE [E23P] | -0.639 kcal/mol |
| VTVDIKGMEYDFDNPEEAKKFAERMAKELGGELKVENGTLKVE [H11D] | 0.422 kcal/mol |
| VTVDINGMEYHFDNPEEAKKFAERMAKELGGELKVENGTLKVE [K6N] | 2.84 kcal/mol |
| VTVDIDGMEYHFDNPEEAKKFAERMAKELGGELKVENGTLKVE [K6D] | 2.92 kcal/mol |
| VTVDIYGMEYHFDNPEEAKKFAERMAKELGGELKVENGTLKVE [K6Y] | 2.87 kcal/mol |
| VTVDISGMEYHFDNPEEAKKFAERMAKELGGELKVENGTLKVE [K6S] | 2.31 kcal/mol |
| VTPDIKGMEYHFDNPEEAKKFAERMAKELGGELKVENGTLKVE [V3P] | 0.059 kcal/mol |
| VTVDIKGMEYHFDNPEEAKKFAERMAKEDGGELKVENGTLKVE [L29D] | 0.74 kcal/mol |
| VTVDIKGMEYHFDNPEEAKKFAERMAKEYGGELKVENGTLKVE [L29Y] | 1.47 kcal/mol |
| VTVDIKGMEYHFDNPEEAKKFAERMAKERGGELKVENGTLKVE [L29R] | 0.668 kcal/mol |
| VTVDIKGMEYHFDNPEEAKKFAERMAKEWGGELKVENGTLKVE [L29W] | 1.34 kcal/mol |
| VTVDIKGMEYHFDNPEEAKKFAERMAKEQGGELKVENGTLKVE [L29Q] | 1.06 kcal/mol |

| Variant | folding stability dG |
| --- | --- |
| VTVDIKGMEYHFDNPEEAKKFAERMAKELGGELKVENGTAKVE [L40A] | 0.864 kcal/mol |
| VTVDIKGMEYHFDNPEEAKKFAERMAKELGGELKVENGTWKVE [L40W] | 2.28 kcal/mol |
| VTVDIKGMEYHFDNPEEAKKFAERMAKELGGELKVENGTTKVE [L40T] | 0.992 kcal/mol |
| VTVDIKGMEYHFDNPEEAKKFAERMAKELGGELKVENGTPKVE [L40P] | 0.807 kcal/mol |
| VTVDIKGMEYHFDNPEEAKKFAERMAKELGGEHKVENGTLKVE [L33H] | 0.949 kcal/mol |
| VTVDIKGMEYHFDNPEEAKKFAERMAKELGGESKVENGTLKVE [L33S] | 0.81 kcal/mol |
| VTVDIKGMEYHFDNPEEAKKFAERMAKELGGEYKVENGTLKVE [L33Y] | 1.43 kcal/mol |
| VTVDIKGMEYHFDNPEEAKKFAERMAKELGGEAKVENGTLKVE [L33A] | 1.07 kcal/mol |
| VTVDIKGTEYHFDNPEEAKKFAERMAKELGGELKVENGTLKVE [M8T] | 2.26 kcal/mol |
| VTVDIKGREYHFDNPEEAKKFAERMAKELGGELKVENGTLKVE [M8R] | 2.41 kcal/mol |
| VTVDIKGQEYHFDNPEEAKKFAERMAKELGGELKVENGTLKVE [M8Q] | 2.05 kcal/mol |
| VTVDIKGMEYHFDNPEEAKKFAERMAKELGGELKVENFTLKVE [G38F] | 0.552 kcal/mol |
| VTVDIKGMESHFDNPEEAKKFAERMAKELGGELKVENGTLKVE [Y10S] | -0.033 kcal/mol |
| VTVDIKGMEQHFDNPEEAKKFAERMAKELGGELKVENGTLKVE [Y10Q] | 0.239 kcal/mol |
| VTVDIKGMEEHFDNPEEAKKFAERMAKELGGELKVENGTLKVE [Y10E] | -0.466 kcal/mol |
| VTVDIKGMEYHFDNPEEAKQFAERMAKELGGELKVENGTLKVE [K20Q] | 2.01 kcal/mol |
| VTVDIKGMEYHFDNPEEAKRFAERMAKELGGELKVENGTLKVE [K20R] | 2.18 kcal/mol |
| VTVDIKGMEYHFDNPEEAKVFAERMAKELGGELKVENGTLKVE [K20V] | 1.73 kcal/mol |
| VTVDIKGMEYHFDNPEEAKKFAERMAKELGGELKVENGTLQVE [K41Q] | 1.24 kcal/mol |
